# Experimental data as given in US8394765B2, “Methods of treating obesity with two different anti-obesity agents” (Amylin Pharmaceuticals LLC, priority 2004, dated 2013).
# Columns and labels:
# [1] = In-bred DIO (Levin) rats, amylin and leptin, body weight and NMR body composition (Example 2); format: in vivo, rat; conditions: two weeks, leptin 500 μg/kg/day, amylin 100 μg/kg/day, FIG. 6A
# Method: They were housed individually in shoebox cages at 22 C in a 12/12-hour light dark cycle.
# Body composition was measured prior to and after drug treatment using NMR (Echo Medical Systems, Houston, Tex.). For body composition measurements, rats were briefly placed (˜1 min) in a well-ventilated plexiglass tube that was then inserted into a specialized rodent NMR machine. Rats were scanned prior to pump implantation and on the final day of the experiment. This enabled the calculation of changes in actual grams of fat and dry lean tissue (e.g., grams of body fat after treatment−grams of body fat at baseline=change in grams of body fat) and changes in % body composition for fat and dry lean tissue (e.g., % body fat after treatment−% body fat at baseline=change in % body fat).
# [2] = Pair-feeding experiment in DIO rats, amylin+leptin (Example 2); format: in vivo, rat; conditions: two weeks, leptin 500 μg/kg/day with intake restricted to amount consumed by amylin-treated group, FIG. 7
# Method: Amylin is known to have an anorectic effect on a recipient. In order to examine the effect of amylin+leptin in the context of an anorectic effect of amylin, a pair-feeding experiment was performed. DIO rats and drug treatment groups were established as described above. DIO rats in the vehicle, amylin, and amylin+leptin treatment groups had ad libitum access to food, while intake in the pair-fed leptin treatment was restricted to the amount consumed by the amylin-treated group. Body weight was recorded daily for the two weeks of treatment. […] The combination of amylin+leptin results in a decrease of about 12% in body weight relative to vehicle control.
# [3] = 24-week randomized, double-blind, active-drug-controlled study of pramlintide and metreleptin in overweight and obese subjects (Example 8); format: in vivo, human
# Method: To evaluate inter alia the safety, tolerability and effect of the combination of an amylin agonist (pramlintide) and a leptin (metreleptin) on changes in body weight, a 24-week, randomized, double-blind, active-drug-controlled, multicenter study was conducted under USFDA approved protocols. Secondary objectives of the study were the determination of the pharmacokinetics of pramlintide and leptin, waist circumference, rate of change in body weight, and patient reported outcomes including for example without limitation perception of well-being related to weight change and mood. The study enrolled overweight and obese subjects with defined BMI ([…]), with enrollment statistics as provided in Table 2. […] Subjects treated with pramlintide/metreleptin lost an average of 25 pounds from the start of the 24-week study compared with an average of 17 pounds for subjects treated with pramlintide alone.
# In an initial lead-in phase, all subjects received dietary instructions and treatment with pramlintide at 180 mcg BID for two weeks, followed by pramlintide at 360 mcg BID for two weeks. Subjects who completed the 4-week lead-in period and who lost 2-8 percent body weight during this period were eligible to continue the study. The term “enrolled” (Table 2) refers to subjects (N=177) receiving at least one dose of pramlintide during the lead-in period. The term “non-randomized” refers to subjects not continuing in the study past the lead-in period. The term “evaluable” refers to subjects who completed Visit 9 (Week 16) study procedures and adequately complied with the study protocol.
# After the 4-week lead-in period, for the remaining 20 weeks of the study the subjects were randomized in a 2:2:1 ratio to one of three groups with BID treatment of 1) pramlintide 360 mcg/metreleptin 5 mg (“Leptin+Pramlintide”); 2) pramlintide 360 mcg/placebo (“Pramlintide”); or 3) metreleptin 5 mg/placebo (“Leptin”).
# [4] = DIO rat 14-day mini-pump study of leptin and amylin: food intake, body weight, body composition (Example 1); format: in vivo; conditions: DIO rats, 14 days s.c. osmotic mini-pump, leptin 500 μg/kg/day, amylin 100 μg/kg/day
# Source text: Diet-induced obesity (DIO) in the in the Sprague-Dawley rat is a valuable model for the study of obesity and regulation of energy homeostasis. These rats were developed from a line of (Crl:CD®(SD)BR) rats that are prone to become obese on a diet relatively high in fat and energy. See, for example, Levin (1994) Am. J. Physiol. 267:R527-R535, Levin et al. (1997) Am. J. Physiol. 273:R725-R730. DIO male rats were obtained from Charles River Laboratories, Inc. (Wilmington, Mass.). The rats were housed individually in shoebox cages at 22° C. in a 12/12-hour light dark cycle. Rats were maintained ad-libitum on a moderately high fat diet (32% kcal from fat; Research Diets D1226B) for 6-7 weeks prior to drug treatment. At the end of the fattening period (prior to drug administration), the animals typically achieve a mean body weight of about 500 g.
# The DIO animals were divided into four treatment groups. Each group was implanted with subcutaneous osmotic mini-pumps (DURECT Corp., Cupertino, Calif.) designed to deliver vehicle, leptin (500 μg/kg/day), amylin (100 μg/kg/day) or leptin (500 μg/kg/day)+amylin (100 μg/kg/day) for a 14 day period. […] Food intake and body weight were recorded daily. Body composition was measured prior to and after drug treatment using NMR (Echo Medical Systems, Houston, Tex.). […]
# [5] = Leptin effect on body weight in normal HSD versus DIO prone rats (Example 3); format: in vivo, rat; conditions: FIG. 9
# Method: Normal, lean HSD rats were divided into two treatment groups. Each group was implanted with subcutaneous osmotic mini-pumps (DURECT Corp., Cupertino, Calif.) designed to deliver either vehicle or leptin (500 μg/kg/day) for a 14 day period and body weight was recorded weekly. […] The DIO prone animals described herein appear resistant to the weight reducing effect of leptin.
# [6] = 4-week pramlintide lead-in, arm of later randomization
molecule,measurement,setting,value
"murine leptin (protein, UniProt P41160 22-167, looked up) Leptin: VPIQKVQDDTKTLIKTIVTRINDISHTQSVSAKQRVTGLDFIPGLHPILSLSKMDQTLAVYQQVLTSLPSQNVLQIANDLENLRDLLHLLAFSKSCSLPQTSGLQKPESLDGVLEASLYSTEVVALSRLQGSLQDILQQLDVSPEC",vehicle-corrected decrease in percent body weight,[1],2%
same,"decrease in body weight relative to vehicle control, pair-fed",[2],~6%
same,"rate of change in body weight, early rate","[3]; 0-12 weeks, evaluable population, FIG. 24",−0.19±0.05 kg/week
same,Mean Change in Body Weight,"[3]; 4-week lead-in period in which all subjects received pramlintide (180 then 360 mcg BID), arm of later randomization",-3.97 kg
same,% Weight Loss During Lead-in <5% (share of subjects),[3]; [6],78%
same,% Weight Loss During Lead-in ≧5% (share of subjects),[3]; [6],22%
same,"rate of change in body weight, late rate","[3]; 12-20 weeks, evaluable population, FIG. 24",−0.01±0.08 kg/week
same,cumulative food intake,[4]; FIG. 1,no effect
same,total changes in body weight,[4]; FIG. 2,no effect
same,body weight,"[5]; DIO prone rats, same leptin dose",ineffective
same,body weight,"[5]; normal, lean HSD rats, leptin 500 μg/kg/day s.c. mini-pump, 14 days",significant and sustained reduction in body weight
